Data reported in US10590193 (dated 2020).

T1: human VEGF165 (human, UniProt P15692)
T1 chain: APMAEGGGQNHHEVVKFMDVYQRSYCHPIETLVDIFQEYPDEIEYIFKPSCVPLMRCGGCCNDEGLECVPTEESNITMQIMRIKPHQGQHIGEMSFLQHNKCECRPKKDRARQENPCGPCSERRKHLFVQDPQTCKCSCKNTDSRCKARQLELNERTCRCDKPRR

T2: mouse VEGF164 (mouse, UniProt Q00731)
T2 chain: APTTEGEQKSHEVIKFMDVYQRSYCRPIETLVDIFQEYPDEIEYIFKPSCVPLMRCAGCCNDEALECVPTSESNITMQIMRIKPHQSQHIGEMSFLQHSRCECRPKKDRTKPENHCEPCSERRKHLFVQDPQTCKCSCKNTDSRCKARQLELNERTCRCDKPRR

T3: human PlGF (human, UniProt P49763)
T3 chain: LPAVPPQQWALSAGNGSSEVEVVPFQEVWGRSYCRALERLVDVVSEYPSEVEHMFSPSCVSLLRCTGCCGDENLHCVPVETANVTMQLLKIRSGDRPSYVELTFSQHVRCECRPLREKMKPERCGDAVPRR

T4: rat VEGF164 (rat, UniProt P16612)
T4 chain: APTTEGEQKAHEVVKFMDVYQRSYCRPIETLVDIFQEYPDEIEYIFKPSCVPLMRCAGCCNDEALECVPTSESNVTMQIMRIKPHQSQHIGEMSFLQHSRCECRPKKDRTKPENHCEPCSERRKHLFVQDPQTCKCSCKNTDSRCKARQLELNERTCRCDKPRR

T5: human VEGF110 (human, UniProt P15692)
T5 chain: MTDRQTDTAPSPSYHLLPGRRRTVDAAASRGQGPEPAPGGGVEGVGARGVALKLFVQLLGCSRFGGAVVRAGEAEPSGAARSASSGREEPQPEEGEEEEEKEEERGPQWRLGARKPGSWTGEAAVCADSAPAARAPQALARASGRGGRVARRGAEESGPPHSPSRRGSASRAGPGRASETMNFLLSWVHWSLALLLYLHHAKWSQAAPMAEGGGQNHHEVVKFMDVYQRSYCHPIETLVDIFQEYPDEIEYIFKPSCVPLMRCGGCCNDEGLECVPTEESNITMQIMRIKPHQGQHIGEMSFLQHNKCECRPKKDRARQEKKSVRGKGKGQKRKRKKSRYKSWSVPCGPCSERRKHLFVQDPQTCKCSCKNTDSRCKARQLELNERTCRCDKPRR

T6: human VEGF121 (human, UniProt P15692)
T6 chain: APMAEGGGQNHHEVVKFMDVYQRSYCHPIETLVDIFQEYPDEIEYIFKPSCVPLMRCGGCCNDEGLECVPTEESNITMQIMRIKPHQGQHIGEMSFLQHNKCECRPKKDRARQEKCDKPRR


Experiments:
human VEGF165 [1] = target: T1, human VEGF165; assay: SPR, pH 5
mouse VEGF164 = target: T2, mouse VEGF164; assay: SPR, pH 5
human PlGF = target: T3, human PlGF; assay: SPR, pH 5
rat VEGF164 = target: T4, rat VEGF164; assay: SPR, pH 5
human VEGF110 = target: T5, human VEGF110; assay: SPR, pH 5
human VEGF165 [2] = target: T1, human VEGF165; assay: SPR, pH 5
human VEGF165 [3] = target: T1, human VEGF165; assay: SPR, pH 7.4
human VEGF121 = target: T6, human VEGF121; assay: SPR, pH 5

Binder | Kd (human VEGF165 [1]) [nM] | Kd (mouse VEGF164) [nM] | binding result (human PlGF) | Kd (rat VEGF164) [nM] | Kd (human VEGF110) [nM] | Kd (human VEGF165 [2]) [nM] | Kd (human VEGF165 [3]) [nM] | Kd (human VEGF121) [nM]
578 wildtype C-His (798) (antibody, V domains shown) VH: QSVEESGGRLVTPGTPLTLTCTASGFSLTDYYYMTWVRLAPGKGLEYIGFIDPDDDPYYATWAKGRFTISRTSTTVNLKMTSPTTEDTATYFCAGGDHNSGWGLDIWGPGTLVTVSL VL: DVVMTQTPSSVSAAVGDTVTINCQASEIIHSWLAWYQQKPGQPPKLLIYLASTLASGVPSRFKGSGSGTQFTLTISDLECADAAIYYCQNVYLASTNGANFGGGTEVVVK | 0.2 | – | – | – | – | – | – | –
509-min (antibody, V domains shown) VH: EVQLVESGGGLVQPGGSLRLSCAASGFSLSSYYMCWVRQAPGKGLEWVSCLDYVGDTDYASWAKGRFTISRDNSKNTLYLQMNSLRAEDTAVYYCAKTDDSRGWGLNIWGQGTLVTVSS VL: EIVMTQSPSTLSASVGDRVIITCQASQNIRIWLSWYQQKPGKAPKLLIYKASTLESGVPSRFSGSGSGAEFTLTISSLQPDDFATYYCQNNAHYSTNGGTFGQGTKLTVLG | – | 1.63 | no binding | 2.41 | 1.65 | 1.82 | 3.06 | 1.28
509-maxII (antibody, V domains shown) VH: EVQLVESGGGLVQPGGSLRLSCTASGFSLSSYYMSWVRQAPGKGLEWVGILDYVGDTDYASWAKGRFTISKDASKNTVYLQMNSLRAEDTAVYYCARTDDSRGWGLNIWGQGTLVTVSS VL: EIVMTQSPSTLSASVGDRVIITCQASQNIRIWLSWYQQKPGKAPKLLIYKASTLESGVPSRFSGSGSGTEFTLTISSLQPDDFATYYCQNNAHYSTNGGTFGQGTKLTVLG | – | 1.73 | no binding | 1.81 | 1.48 | 3.37 | 2.61 | 1.37
567-min (antibody, V domains shown) VH: EVQLVESGGGLVQPGGSLRLSCAASGFSLSDYYMCWVRQAPGKGLEWVSCLDYFGSTDDASWAKGRFTISRDNSKNTLYLQMNSLRAEDTAVYYCAKTDDSRGWGLNIWGQGTLVTVSS VL: EIVMTQSPSTLSASVGDRVIITCQADQSIYIWLSWYQQKPGKAPKLLIYKASTLESGVPSRFSGSGSGAEFTLTISSLQPDDFATYYCQNNAHYSTNGGTFGQGTKLTVLG | – | 0.17 | no binding | 0.279 | 0.0251 | 0.23 | 0.631 | 0.0241
509-max (antibody, V domains shown) VH: EVQLVESGGGLVQPGGSLRLSCTASGFSLSSYYMCWVRQAPGKGLEWVGCLDYVGDTDYASWAKGRFTISKDASKNTVYLQMNSLRAEDTAVYYCARTDDSRGWGLNIWGQGTLVTVSS VL: EIVMTQSPSTLSASVGDRVIITCQASQNIRIWLSWYQQKPGKAPKLLIYKASTLESGVPSRFSGSGSGTEFTLTISSLQPDDFATYYCQNNAHYSTNGGTFGQGTKLTVLG | – | 1.45 | no binding | 1.65 | 0.363 | 1.21 | 0.378 | 0.335
567-max (antibody, V domains shown) VH: EVQLVESGGGLVQPGGSLRLSCSVSGFSLSDYYMCWVRQAPGKGLEWVGCLDYFGSTDDASWAKGRFTISKDTSKNTVYLQMNSLRAEDTAVYYCARTDDSRGWGLNIWGQGTLVTVSS VL: EIVMTQSPSTLSASVGDRVIITCQADQSIYIWLSWYQQKPGKAPKLLIYKASTLESGVPSRFSGSGSGTQFTLTISSLQPDDFATYYCQNNAHYSTNGGTFGQGTKLTVLG | – | 0.0929 | no binding | 0.149 | 0.0327 | 0.188 | 0.143 | 0.0511
511-min (antibody, V domains shown) VH: EVQLVESGGGLVQPGGSLRLSCAASGFSLNTYYMNWVRQAPGKGLEWVSIIAPDDTTYYASWAKSRFTISRDNSKNTLYLQMNSLRAEDTAVYYCAKSGDTTAWGADIWGQGTLVTVSS VL: EIVMTQSPSTLSASVGDRVIITCQASQSINIWCSWYQQKPGKAPKLLIYRASTLASGVPSRFSGSGSGAEFTLTISSLQPDDFATYYCQANYAYSAGYGAAFGQGTKLTVLG | – | 1.64 | no binding | 2.04 | 1.45 | 2.53 | 1.31 | 1.24
511min_max (904) (antibody, V domains shown) VH: EVQLVESGGGLVQPGGSLRLSCTVSGFSLNTYYMNWVRQAPGKGLEWVGIIAPDDTTYYASWAKSRSTISRDTSKNTVYLQMNSLRAEDTAVYYCARSGDTTAWGADIWGQGTLVTVSS VL: EIVMTQSPSTLSASVGDRVIITCQASQSINIWCSWYQQKPGKAPKLLIYRASTLASGVPSRFSGSGSGAEFTLTISSLQPDDFATYYCQANYAYSAGYGAAFGQGTKLTVLG | 0.278 | – | – | – | – | – | – | –
511max_min (905) (antibody, V domains shown) VH: EVQLVESGGGLVQPGGSLRLSCAASGFSLNTYYMNWVRQAPGKGLEWVSIIAPDDTTYYASWAKSRFTISRDNSKNTLYLQMNSLRAEDTAVYYCAKSGDTTAWGADIWGQGTLVTVSS VL: EIVMTQSPSTLSASVGDRVIITCQASQSINIWLSWYQQKPGKAPKLLIYRASTLASGVPSRFSGSGSGTEFTLTISSLQPDDFATYYCQANYAYSAGYGAAFGQGTKLTVLG | 1.48 | – | – | – | – | – | – | –
578-min (antibody, V domains shown) VH: EVQLVESGGGLVQPGGSLRLSCAASGFSLTDYYYMTWVRQAPGKGLEWVSFIDPDDDPYYATWAKGRFTISRDNSKNTLYLQMNSLRAEDTAVYYCAKGDHNSGWGLDIWGQGTLVTVSS VL: EIVMTQSPSTLSASVGDRVIITCQASEIIHSWLAWYQQKPGKAPKLLIYLASTLASGVPSRFSGSGSGAEFTLTISSLQPDDFATYYCQNVYLASTNGANFGQGTKLTVLG | – | 10.7 | no binding | 10.7 | 11.4 | 9.01 | 0.181 | 9.16
578min_max T84N (991) (antibody, V domains shown) VH: EVQLVESGGGLVQPGGSLRLSCTASGFSLTDYYYMTWVRQAPGKGLEWVGFIDPDDDPYYATWAKGRFTISRDNSKNTVYLQMNSLRAEDTAVYYCAGGDHNSGWGLDIWGQGTLVTVSS VL: EIVMTQSPSTLSASVGDRVIITCQASEIIHSWLAWYQQKPGKAPKLLIYLASTLASGVPSRFSGSGSGAEFTLTISSLQPDDFATYYCQNVYLASTNGANFGQGTKLTVLG | 0.971 | – | – | – | – | – | – | –
578min_max V89A (978) (antibody, V domains shown) VH: EVQLVESGGGLVQPGGSLRLSCTASGFSLTDYYYMTWVRQAPGKGLEWVGFIDPDDDPYYATWAKGRFTISRDTSKNTAYLQMNSLRAEDTAVYYCAGGDHNSGWGLDIWGQGTLVTVSS VL: EIVMTQSPSTLSASVGDRVIITCQASEIIHSWLAWYQQKPGKAPKLLIYLASTLASGVPSRFSGSGSGAEFTLTISSLQPDDFATYYCQNVYLASTNGANFGQGTKLTVLG | 1.2 | – | – | – | – | – | – | –
578-max (antibody, V domains shown) VH: EVQLVESGGGLVQPGGSLRLSCTASGFSLTDYYYMTWVRQAPGKGLEWVGFIDPDDDPYYATWAKGRFTISRDTSKNTVYLQMNSLRAEDTAVYYCAGGDHNSGWGLDIWGQGTLVTVSS VL: EIVMTQSPSTLSASVGDRVIITCQASEIIHSWLAWYQQKPGKAPKLLIYLASTLASGVPSRFSGSGSGTQFTLTISSLQPDDFATYYCQNVYLASTNGANFGQGTKLTVLG | – | 0.429 | no binding | 0.598 | 1.38 | 0.439 | 0.0237 | 0.95
